Results reported in patent publication US20240226039A1, “IMMUNE CHECKPOINT INHIBITOR AND HDAC INHIBITOR COMBINATION THERAPY STRATEGY” (H. Lee Moffitt Cancer Center and Research Institute, Inc., priority 2021, published 2024).

What was measured:
[1] = system: metastatic NSCLC (mNSCLC); assay: Phase II randomized trial, best response / ORR; format: in vivo, human
Procedure: (§1) Key exclusion criteria: Untreated, progressive, or symptomatic brain metastases, Active uncontrolled autoimmune disorders, and Systemic steroid use equivalent to >10 mg prednisone. […] The primary endpoint was overall response rate (ORR). Additional endpoints included correlative analyses, DOR, PFS and OS. The trial used a Simon Mini-Max two-stage design with interim analysis planned after the first stage when 23 patients were enrolled in each arm.

CD8+ T cells = assay: IHC of CD8+ TIL in pre- and on-treatment core biopsies; format: in vivo, human; conditions: biopsy cycle 1 days 15-21; p=0.001 Arm A, p=0.002 Arm B
Procedure: IHC was performed to determine presence of CD8+ T cells and CD33+ myeloid cells. Biopsies were scored using a 0-3 scale separately in the tumor stroma and tumor beds.

[2] = parameters: species or system human; conditions: in vivo
Procedure: as §1, with “Key inclusion criteria: Histologically confirmed mNSCLCm Treatment naïve, and PD-L1 expression≥1% are eligible. Key” for “Key”

pembrolizumab [Arm A]
disease control rate, interim analysis ([1]; immunotherapy naive patients, p=0.024): 58% | PRs, interim analysis ([1]; immunotherapy naive patients, p=0.026): 25% | ORR in pts with low pre-treatment tumor bed TIL (score=1) ([1]; in vivo): 33.3% | Best Response: Progressive Disease ([1]; patients n (%), first-line mNSCLC): 10 (42%) | Disease Control Rate ([1]; patients n (%), first-line mNSCLC, p = 0.024 between arms): 14 (58%) | Best Response: Partial Response ([1]; patients n (%), first-line mNSCLC, p = 0.026 between arms): 6 (25%) | change from pre-treatment to on-treatment CD8+ TIL scores (CD8+ T cells): significant increase | ALT increased Gr 1 [2]: 0 | ALT increased Gr 2 [2]: 0 | ALT increased Gr 3 [2]: 1 (4%) | ALT increased Gr 4 [2]: 0 | ALT increased Total [2]: 1 (4%) | AST increased Gr 1 [2]: 0 | AST increased Gr 2 [2]: 0 | AST increased Gr 3 [2]: 1 (4%) | AST increased Gr 4 [2]: 0 | AST increased Total [2]: 1 (4%) | Alkaline phosphatase increased Gr 1 [2]: 0 | Alkaline phosphatase increased Gr 2 [2]: 0 | Alkaline phosphatase increased Gr 3 [2]: 0 | Alkaline phosphatase increased Gr 4 [2]: 0 | Alkaline phosphatase increased Total [2]: 0 | Alopecia Gr 1 [2]: 0 | Alopecia Gr 2 [2]: 0 | Alopecia Gr 3 [2]: 0 | Alopecia Gr 4 [2]: 0 | Alopecia Total [2]: 0 | Anemia Gr 1 [2]: 0 | Anemia Gr 2 [2]: 0 | Anemia Gr 3 [2]: 0 | Anemia Gr 4 [2]: 0 | Anemia Total [2]: 0 | Anorexia Gr 1 [2]: 1 (4%) | Anorexia Gr 2 [2]: 0 | Anorexia Gr 3 [2]: 0 | Anorexia Gr 4 [2]: 0 | Anorexia Total [2]: 1 (4%) | Arthralgia Gr 1 [2]: 0 | Arthralgia Gr 2 [2]: 0 | Arthralgia Gr 3 [2]: 0 | Arthralgia Gr 4 [2]: 0 | Arthralgia Total [2]: 0 | Chest pain - cardiac Gr 1 [2]: 0 | Chest pain - cardiac Gr 2 [2]: 0 | Chest pain - cardiac Gr 3 [2]: 1 (4%) | Chest pain - cardiac Gr 4 [2]: 0 | Chest pain - cardiac Total [2]: 1 (4%) | Creatinine increased Gr 1 [2]: 0 | Creatinine increased Gr 2 [2]: 0 | Creatinine increased Gr 3 [2]: 0 | Creatinine increased Gr 4 [2]: 0 | Creatinine increased Total [2]: 0 | Diarrhea Gr 2 [2]: 1 (4%) | Diarrhea Gr 3 [2]: 0 | Diarrhea Gr 4 [2]: 0 | Diarrhea Total [2]: 3 (13%) | Dysgeusia Gr 1 [2]: 0 | Dysgeusia Gr 2 [2]: 0 | Dysgeusia Gr 3 [2]: 0 | Dysgeusia Gr 4 [2]: 0 | Dysgeusia Total [2]: 0 | Fatigue Gr 1 [2]: 1 (4%) | Fatigue Gr 2 [2]: 1 (4%) | Fatigue Gr 3 [2]: 0 | Fatigue Gr 4 [2]: 0 | Fatigue Total [2]: 2 (8%) | Heart failure Gr 1 [2]: 0 | Heart failure Gr 2 [2]: 0 | Heart failure Gr 3 [2]: 0 | Heart failure Gr 4 [2]: 0 | Heart failure Total [2]: 0 | Hyponatremia Gr 1 [2]: 0 | Hyponatremia Gr 2 [2]: 0 | Hyponatremia Gr 3 [2]: 1 (4%) | Hyponatremia Gr 4 [2]: 0 | Hyponatremia Total [2]: 1 (4%) | Hypothyroidism Gr 1 [2]: 0 | Hypothyroidism Gr 2 [2]: 1 (4%) | Hypothyroidism Gr 3 [2]: 0 | Hypothyroidism Gr 4 [2]: 0 | Hypothyroidism Total [2]: 1 (4%) | Nausea Gr 1 [2]: 0 | Nausea Gr 2 [2]: 0 | Nausea Gr 3 [2]: 0 | Nausea Gr 4 [2]: 0 | Nausea Total [2]: 0 | Pain Gr 1 [2]: 0 | Pain Gr 2 [2]: 0 | Pain Gr 3 [2]: 0 | Pain Gr 4 [2]: 0 | Pain Total [2]: 0 | Pericardial effusion/ tamponade Gr 1 [2]: 0 | Pericardial effusion/ tamponade Gr 2 [2]: 0 | Pericardial effusion/ tamponade Gr 3 [2]: 0 | Pericardial effusion/ tamponade Gr 4 [2]: 0 | Pericardial effusion/ tamponade Total [2]: 0 | Platelet count decreased Gr 1 [2]: 0 | Platelet count decreased Gr 2 [2]: 0 | Platelet count decreased Gr 3 [2]: 0 | Platelet count decreased Gr 4 [2]: 0 | Platelet count decreased Total [2]: 0 | Pneumonitis Gr 1 [2]: 0 | Pneumonitis Gr 2 [2]: 0 | Pneumonitis Gr 3 [2]: 1 (4%) | Pneumonitis Gr 4 [2]: 0 | Pneumonitis Total [2]: 1 (4%) | Pruritis Gr 2 [2]: 0 | Pruritis Gr 3 [2]: 0 | Pruritis Gr 4 [2]: 0 | QT prolongation Gr 1 [2]: 0 | QT prolongation Gr 2 [2]: 0 | QT prolongation Gr 3 [2]: 0 | QT prolongation Gr 4 [2]: 0 | QT prolongation Total [2]: 0 | Rash maculo-papular Gr 1 [2]: 0 | Rash maculo-papular Gr 2 [2]: 0 | Rash maculo-papular Gr 3 [2]: 1 (4%) | Rash maculo-papular Gr 4 [2]: 0 | Rash maculo-papular Total [2]: 1 (4%) | Thromboembolic event Gr 1 [2]: 0 | Thromboembolic event Gr 2 [2]: 0 | Thromboembolic event Gr 3 [2]: 0 | Thromboembolic event Gr 4 [2]: 0 | Thromboembolic event Total [2]: 0 | Total AEs Gr 1 [2]: 8 | Total AEs Gr 2 [2]: 6 | Total AEs Gr 3 [2]: 6 | Total AEs Gr 4 [2]: 0 | Total AEs Total [2]: 20 | Total irAEs Gr 1 [2]: 4 | Total irAEs Gr 2 [2]: 2 | Total irAEs Gr 3 [2]: 3 | Total irAEs Gr 4 [2]: 0 | Total irAEs Total [2]: 9 | Vomiting Gr 1 [2]: 0 | Vomiting Gr 2 [2]: 0 | Vomiting Gr 3 [2]: 0 | Vomiting Gr 4 [2]: 0 | Vomiting Total [2]: 0 | irAE AST increased Gr 1 [2]: 0 | irAE AST increased Gr 2 [2]: 0 | irAE AST increased Gr 3 [2]: 0 | irAE AST increased Gr 4 [2]: 0 | irAE AST increased Total [2]: 0 | irAE Adrenal insufficiency Gr 1 [2]: 0 | irAE Adrenal insufficiency Gr 2 [2]: 1 (4%) | irAE Adrenal insufficiency Gr 3 [2]: 0 | irAE Adrenal insufficiency Gr 4 [2]: 0 | irAE Adrenal insufficiency Total [2]: 1 (4%) | irAE Arthralgia Gr 1 [2]: 0 | irAE Arthralgia Gr 2 [2]: 0 | irAE Arthralgia Gr 3 [2]: 0 | irAE Arthralgia Gr 4 [2]: 0 | irAE Arthralgia Total [2]: 0 | irAE Brachial plexopathy Gr 1 [2]: 0 | irAE Brachial plexopathy Gr 2 [2]: 0 | irAE Brachial plexopathy Gr 3 [2]: 0 | irAE Brachial plexopathy Gr 4 [2]: 0 | irAE Brachial plexopathy Total [2]: 0 | irAE Colitis Gr 1 [2]: 0 | irAE Colitis Gr 2 [2]: 1 (4%) | irAE Colitis Gr 3 [2]: 0 | irAE Colitis Gr 4 [2]: 0 | irAE Colitis Total [2]: 1 (4%) | irAE Hepatitis Gr 1 [2]: 0 | irAE Hepatitis Gr 2 [2]: 0 | irAE Hepatitis Gr 3 [2]: 1 (4%) | irAE Hepatitis Gr 4 [2]: 0 | irAE Hepatitis Total [2]: 1 (4%) | irAE Hypothyroidism Gr 1 [2]: 0 | irAE Hypothyroidism Gr 2 [2]: 0 | irAE Hypothyroidism Gr 3 [2]: 0 | irAE Hypothyroidism Gr 4 [2]: 0 | irAE Hypothyroidism Total [2]: 0 | irAE Pancreatic atrophy Gr 1 [2]: 0 | irAE Pancreatic atrophy Gr 2 [2]: 0 | irAE Pancreatic atrophy Gr 3 [2]: 0 | irAE Pancreatic atrophy Gr 4 [2]: 0 | irAE Pancreatic atrophy Total [2]: 0 | irAE Pericardial effusion Gr 1 [2]: 0 | irAE Pericardial effusion Gr 2 [2]: 0 | irAE Pericardial effusion Gr 3 [2]: 0 | irAE Pericardial effusion Gr 4 [2]: 0 | irAE Pericardial effusion Total [2]: 0 | irAE Pneumonitis Gr 1 [2]: 0 | irAE Pneumonitis Gr 2 [2]: 0 | irAE Pneumonitis Gr 3 [2]: 1 (4%) | irAE Pneumonitis Gr 4 [2]: 0 | irAE Pneumonitis Total [2]: 1 (4%) | irAE Rash/pruritis/dry skin Gr 1 [2]: 4 (17%) | irAE Rash/pruritis/dry skin Gr 2 [2]: 0 | irAE Rash/pruritis/dry skin Gr 3 [2]: 1 (4%) | irAE Rash/pruritis/dry skin Gr 4 [2]: 0 | irAE Rash/pruritis/dry skin Total [2]: 5 (21%) | treatment discontinued due to toxicity, number of patients [2]: 2 patients | treatment discontinued due to toxicity, share of patients [2]: 8%
